Patent US10597674B2, “HPPD variants and methods of use” (BASF Agricultural Solutions Seed, US LLC, priority 2015, dated 2020)
Positions count from the first letter of the chain named. Names and notes keep the numbering of the source. Where two headings read alike, the source gives them in different places.

Tests used:
[1] = tested on: E. coli cells expressing an HPPD polypeptide; assay: Brown color bioassay in liquid culture, residual brown color formation (BCF), OD440 after 96 hours; type: cell-based; conditions: for Control BCF OD440nm: brown color formation in absence of Cmpd. 1, culture supernatant after 96 hours, 5 mM HPP; for Residual BCF OD440nm [%]: brown color formation with Cmpd. 1 (1000 μM) relative to without, after 96 hours
Procedure: In an additional experiment, mutant HPPD polypeptides were analyzed using the principle of a colorimetric brown color assay (as, for example, described in U.S. Pat. No. 6,768,044). Bacterial cells expressing the HPPD polypeptides according to this invention were assayed in 96 well plate format (Nunc® 96 DeepWell™ plate, Sigma-Aldrich, St. Louis, USA) for HPPD polypeptides with improved HPPD inhibitor herbicide tolerance.
E. coli cells were grown in liquid LB medium (Carl Roth GmbH+Co. KG, Karlsruhe, Germany) containing the selection agent for the expression vector pSE420(RI)NX (WO2014/043435) and 5 mM para-hydroxyphenylpyruvate (HPP; Sigma-Aldrich, St. Louis, USA), in the presence of absence of the HPPD inhibitor herbicide e.g. Cmpd. 1 (1000 μM). An overnight culture of E. coli culture expressing one of the respective HPPD polypeptides according to this invention were adjusted to an OD600 of 0.3-0.5 in a final volume of 500 μL and incubated at 30 degree Celsius. Residual brown color formation was determined by measuring the brown color formation (BCF) in the presence and absence of Cmpd. […] Therefore, after 96 hours the culture was centrifuged and the supernatant of the culture was used to measure the optical density of the soluble brown pigment formation at 440 nm (OD440 nm).

[2] = tested on: HPPD polypeptides (wild-type SEQ ID NO:1 and mutants)
Procedure: For the generation of crude HPPD polypeptide extract in micro titer plates (MTP) for the determination of residual activity in inhibition assays, cells were grown in 40 or 150 μl LB medium containing 1% Glucose (Merck, Darmstadt, Germany) and 100 μg/ml ampicillin in a standard 96 well plate (Thermo Fisher Scientific, Waltham, USA) incubated for about 18 h in a humidity incubator at 37° C.
30 μl of this starter culture were added to 600 μl LB medium containing 100 μg/ml ampicillin and 150 mM Hepes (Merck, Darmstadt, Germany) as inoculum for the expression culture in 96 well plates (2 ml deep wells; HJ Bioanalytik, Erkelenz, Germany) The plates were sealed by an aluminium foil, and cells were incubated for 5 h at 37° C. on a plate shaker at 750 rpm. The expression was induced by addition of IPTG in a final concentration of 1 mM followed by further sealed incubation for about 18 h at 30° C. on a plate shaker at 750 rpm.
Cells were harvested by centrifugation at 4° C., 2500 g for 15 min discarding the supernatant. Cell pellets were stored at −80° C. and lysed in 250 μl 1× BugBuster® (Merck, Darmstadt, Germany) in 140 mM Tris (pH 7.8), with 1:25000 diluted BNase® (Qiagen, Hilden, Germany) by incubation of the resuspended cells for 30 min at 4° C. and 1000 rpm. Lysates were clarified by centrifugation for 15 min at 4° C., 2500 g, and 150 μl supernatant were transferred in standard 96 well plate (Thermo Fisher Scientific, Waltham, USA) for subsequent testing in quadruplets.
The activity of HPPD polypeptides was determined in absence or presence of HPPD inhibitors using the coupled HPPD activity assay (FIG. 1).
For the determination of the residual activity, the apparent kinetic constant (kapp) of the determined substrate conversion was measured as kinetic changes in absorbance at 320 nm in a coupled assay, in that homogentisate (HGA) formed by HPPD from HPP is directly converted into the well absorbing molecule maleylacetoacetate (MAA) by a second enzyme homogentisate dioxygenase (HGD), applied in excess uniformly in all assays (see FIG. 1). The measurements were performed in 384 micro titer plates (Greiner Bio-One GmbH, Frickenhausen, Germany) by plate readers (Tecan infinite M1000 or M1000PRO, Tecan, Männedorf, Switzerland). The kcat/kM ratio of an enzymatic activity is proportional to the apparent kinetic constant kapp and is proportional to kcat/kM*[E] ([E]=enzyme concentration). […] As both kapp measurements in the presence and absence of inhibitor were performed by use of the identical enzyme sample, crude or purified, and thereby at the same enzyme concentration, the enzyme concentration eliminates from the calculation of residual activity and the ratio of both kapp directly indicates the change of kM due to the inhibition.

[3] = tested on: transgenic soybean T0 events; assay: Additional greenhouse trials of T0 soybean events, leaf damage score 0-100 as percentiles; type: in vivo; conditions: Cmpd. 1 300 g AI/ha, five days
Text: In additional greenhouse trials, 21 to 94 independent T0 soybean events per construct containing an exemplary mutant HPPD polypeptide were sprayed with the HPPD inhibitor herbicide Cmpd. […] Five days after the application, the leaf damaged area due to the HPPD inhibitor herbicide is scored in a scale from 0 (no damage) to 100 (complete bleaching). Under those conditions, the wild-type plants were completely bleached and their damage scores were in the 95-100 range.
Table 9 presents the distribution of the HPPD inhibitor herbicide damage score data as percentile for exemplary mutant HPPD inhibitor herbicide tolerant polypeptides (SEQ ID NOs). The percentiles normalize ranks of the damage score from an individual plant in a population. […] The median is the 50th percentile. Half the values had higher damage scores; half had lower damage scores. […] The difference between the 75th and 25th percentile is called the interquartile range and a marker to quantify scattering in the population. All constructs had only one single cassette insertion in the soybean genome.
In Table 9, the constructs were ranked based on injury scores according to the 75th percentile, from smallest to highest score. All exemplary HPPD polypeptide variants are better in all percentile analyses than the prior art mutant HPPD polypeptide (WO2014/043435) corresponding to SEQ ID NO:2 in this invention. The scoring of the prior art mutant HPPD polypeptide (WO2014/043435) corresponding to SEQ ID NO:2 in this invention is listed in the bottom row of Table 9.

[4] = in the presence of Cmpd. 1, 15 μM inhibitor, high substrate concentration, kapp normalized to kapp without inhibitor
[5] = in the presence of Cmpd. 1, 15 μM inhibitor, high substrate concentration, total change in signal normalized to no inhibitor
[6] = in the presence of Cmpd. 2, 15 μM inhibitor, high substrate concentration, kapp normalized to kapp without inhibitor
[7] = in the presence of Cmpd. 2, 15 μM inhibitor, high substrate concentration, total change in signal normalized to no inhibitor
[8] = in the presence of diketonitrile (DKN), 60 μM inhibitor, high substrate concentration, kapp normalized to kapp without inhibitor
[9] = in the presence of diketonitrile (DKN), 60 μM inhibitor, high substrate concentration, total change in signal normalized to no inhibitor
[10] = in the presence of mesotrione (MST), 60 μM inhibitor, high substrate concentration, kapp normalized to kapp without inhibitor
[11] = in the presence of mesotrione (MST), 60 μM inhibitor, high substrate concentration, total change in signal normalized to no inhibitor

With `Cc1nnc(NC(=O)c2ccc(C(F)(F)F)c(S(C)(=O)=O)c2C)o1` [Cmpd. 2, 2-methyl-N-(5-methyl-1,3,4-oxadiazol-2-yl)-3-(methylsulfonyl)-4-(trifluoromethyl)benzamide, reference compound] the “Control BCF OD440nm” value [1] was 2.68, the “Residual BCF OD440nm [%]” value [1] was 18% and the Residual activity [2, 4] was 39%. The Residual turnover [2, 5] was 50%, the Residual activity [2, 6] was 51% and the Residual turnover [2, 7] was 72%. It also gave a Residual activity [2, 8] of 86%, a Residual turnover [2, 9] of 93% and a Residual activity [2, 10] of 71%. It also gave a Residual turnover [2, 11] of 85%.

B1: 14 (protein)
chain: MADLYENPMGLMGFEFIEFASPTPGTLEPIFEIMGFTKVATHRSKNVHLYRQGEINLILNNEPNSIASYFAAEHGPSVCGMAFRVKDSQKAYNRALELGAQPIHIDTGPMELNLPAIKGIGGAPLYLIDRFGEGSSIYDIDFVYLEGVERNPVGAGLKVIDHLTHNVYRGRMVYWANFYEKLFNFREARYFDIKGEYTGLTSKAMSAPDGMIRIPLNEESSKGAGQIEEFLMQFNGEGIQHVAFLTDDLVKTWDALKKIGMRFMTAPPDTYYEMLEGRLPDHGEPVDQLQARGILLDGSSVEGDKRLLLQIFSETLMGPVFFEFIQRKGHDGFGPDSFKVLFESVERDQVRRGVLTAD
modifications: mutant HPPD polypeptide
For B1, the “Control BCF OD440nm” value [1] was 1.42, the “Residual BCF OD440nm [%]” value [1] was 63% and the Residual activity [2, 4] was 44%. It also gave a Residual turnover [2, 5] of 60%, a Residual activity [2, 6] of 82% and a Residual turnover [2, 7] of 92%. The Residual activity [2, 8] was 91%, the Residual turnover [2, 9] was “n.i” and the Residual activity [2, 10] was 70%. The Residual turnover [2, 11] was 89%.

B2: 100 (protein)
chain: B1 chain with M264L, P268G, T270E, S344Q, V345M
modifications: mutant HPPD polypeptide
In the case of B2, the “Control BCF OD440nm” value [1] is reported as 2.48 and the “Residual BCF OD440nm [%]” value [1] is reported as 33%.

B3: 99 (protein)
chain: B1 chain with P268G, T270E, H330D, F338V, V340R
modifications: mutant HPPD polypeptide
With B3 the “Control BCF OD440nm” value [1] was 1.52 and the “Residual BCF OD440nm [%]” value [1] was 87%.

B4: SEQ ID NO: 30: mutant HPPD polypeptide: P268S T270S E335P G336H N337S A340V I345K (protein)
chain: B1 chain with P268S, T270S, H330D, D336H, V345K
modifications: mutant HPPD polypeptide
notes: mutant HPPD polypeptide: P268S T270S E335P G336H N337S A340V I345K
In the case of B4, the “leaf damage score, Interquartile range” value ([3]; 75th minus 25th percentile) is reported as 5.0, the “leaf damage score, 25th percentile” value ([3]; scale 0 (no damage) to 100 (complete bleaching)) is reported as 10.0 and the “leaf damage score, 75th percentile” value ([3]; scale 0-100) is reported as 15.0. For the same molecule, the “leaf damage score, 90th percentile” value ([3]; scale 0-100) was 25.0 and the “leaf damage score, Median” value ([3]; scale 0-100) was 15.0.

B5: 102 (protein)
chain: B1 chain with M264L, P268R, T270E, T315R, H330D, D336H, S344Q, V345M
modifications: mutant HPPD polypeptide
In the case of B5, the “Control BCF OD440nm” value [1] is reported as 2.47 and the “Residual BCF OD440nm [%]” value [1] is reported as 26%.

B6: 107 (protein)
chain: B1 chain with R213K, P268G, T270E, H330D, D336H, F338V, V340R
modifications: mutant HPPD polypeptide
For B6, the “Control BCF OD440nm” value [1] was 1.38 and the “Residual BCF OD440nm [%]” value [1] was 84%.

B7: 21 (protein)
chain: B1 chain with H330D, D336H, V340A, V345I
modifications: mutant HPPD polypeptide
With B7 the “Control BCF OD440nm” value [1] was 0.99, the “Residual BCF OD440nm [%]” value [1] was 65% and the Residual activity [2, 4] was 18%. It also gave a Residual turnover [2, 5] of 30%, a Residual activity [2, 6] of 73% and a Residual turnover [2, 7] of 84%. For the same molecule, the Residual activity [2, 8] was 81%, the Residual turnover [2, 9] was “n.i” and the Residual activity [2, 10] was 62%. For the same molecule, the Residual turnover [2, 11] was 89%.

B8: 106 (protein)
chain: B1 chain with M264L, P268G, T270E, D331P, S344Q, V345M
modifications: mutant HPPD polypeptide
For B8, the “Control BCF OD440nm” value [1] was 1.50 and the “Residual BCF OD440nm [%]” value [1] was 73%.

B9: 97 (protein)
chain: B1 chain with P268G, T270R, D331S, V345K
modifications: mutant HPPD polypeptide
With B9 the “Control BCF OD440nm” value [1] was 1.54 and the “Residual BCF OD440nm [%]” value [1] was 49%.

B10: 19 (protein)
chain: B1 chain with M264R, P268G, T270E
modifications: mutant HPPD polypeptide
With B10 the “Control BCF OD440nm” value [1] was 1.65, the “Residual BCF OD440nm [%]” value [1] was 60% and the Residual activity [2, 4] was 68%. The Residual turnover [2, 5] was 79%, the Residual activity [2, 6] was 92% and the Residual turnover [2, 7] was 93%. For the same molecule, the Residual activity [2, 8] was “n.i. (no inhibition was observed under the given conditions)”, the Residual turnover [2, 9] was “n.i” and the Residual activity [2, 10] was 51%. The Residual turnover [2, 11] was 78%, the Residual activity ([2]; kapp in presence of 50 μM Cmpd. 1, normalised to kapp without inhibitor, low substrate concentration) was 67% and the Residual turnover ([2]; total change in signal in presence of 50 μM Cmpd. 1, normalised to that without inhibitor, low substrate concentration) was 88%.
